Where two headings read alike, the source gives them in different places.
How the values were obtained:
Phos2680 = Phos2680 (Drosophila melanogaster, UniProt Q9W4W5); test: In vitro inhibition of Phos2680, p-NPP as substrate
[1] = target: hsEH N-terminal phosphatase; settings: cited from earlier work
Phos15739 [2] = target: T1, Phos15739 (Drosophila melanogaster, UniProt Q9VYT0); test: In vitro inhibition of Phos15739, p-NPP as substrate; settings: for inhibitor quality for Phos15739 (in words): p-NPP as substrate
Phos15739D28A = test: Enzymatic activity of variant Phos15739D28A with p-NPP and FPP; format: biochemical, D. melanogaster; settings: same reaction conditions as positive control Phos15739; data not shown
[3] = system: N-terminal domain of hsEH; settings: FPP as substrate of N-terminal domain of hsEH; ref [8]; cited from earlier work
Phos15739 [4] = target: T1, Phos15739; format: biochemical, D. melanogaster; settings: for substrate quality for Phos15739 (in words): isoprenoid mono- and pyrophosphate substrates
[5] = substrate: O=[N+]([O-])c1ccc(OP(=O)(O)O)cc1; test: p-NPP phosphatase activity of Phos15739; format: biochemical, D. melanogaster; settings: other: p-NPP as substrate of Phos15739, pH 6.0, 2 mM Mg2+
[6] = substrate: C=C(C)CCOP(=O)(O)O; test: purified protein, by the assay type
[7] = substrate: CC(C)=CCC/C(C)=C/CC/C(C)=C/CO[P@@](=O)(O)OP(=O)(O)O; test: purified protein, by the assay type; settings: other: substrate of Phos15739; IPP, GPP, FPP values are apparent kinetics
[8] = substrate: CC(C)=CCC/C(C)=C/CC/C(C)=C/COP(=O)(O)O; test: purified protein, by the assay type; format: biochemical, D. melanogaster; settings: other: substrate of Phos15739; IPP, GPP, FPP values are apparent kinetics
[9] = substrate: CC(C)=CCC/C(C)=C/COP(=O)(O)O; test: purified protein, by the assay type; format: biochemical, D. melanogaster; settings: other: substrate of Phos15739; IPP, GPP, FPP values are apparent kinetics
[10] = substrate: C=C(C)CCO[P@@](=O)(O)OP(=O)(O)O; test: purified protein, by the assay type; format: biochemical, D. melanogaster; settings: other: substrate of Phos15739; IPP, GPP, FPP values are apparent kinetics
[11] = substrate: O=[N+]([O-])c1ccc(OP(=O)(O)O)cc1; test: p-NPP phosphatase activity of Phos2680; format: biochemical, D. melanogaster; settings: other: p-NPP as substrate of Phos2680, pH 6.0, 2 mM Mg2+
[12] = substrate of Phos15739, IPP, GPP, FPP values are apparent kinetics
[13] = other: substrate of Phos15739, IPP, GPP, FPP values are apparent kinetics

For `C[C@H](CCC(=O)NCCS(=O)(=O)O)[C@H]1CC[C@H]2[C@@H]3CC[C@@H]4C[C@H](OS(=O)(=O)O)CC[C@]4(C)[C@H]3CC[C@]12C` [Taurolithocholic acid 3-sulfate, taurolithocholic acid 3-sulfate], the IC50 (Phos2680) is given as over 100 µM, the IC50 ([1]; ref [12]) is given as 5 µM and the IC50 (Phos15739 [2]) is given as over 100 µM. The “inhibitor quality for Phos15739 (in words)” value (Phos15739 [2]) was “poor inhibitors”.

In the case of `CC(C)=CCC/C(C)=C/CC/C(C)=C/CSCC(=O)O` [S-Farnesyl-thioacetic acid], the IC50 (Phos2680) is reported as 5.1 ± 1.4 µM, the IC50 (Phos15739 [2]) is reported as over 100 µM and the “inhibitor quality for Phos15739 (in words)” value (Phos15739 [2]) is reported as “poor inhibitors”.

For `CC(C)=CCC/C(C)=C/CC/C(C)=C/COP(=O)(O)OP(=O)(O)O` [FPP, farnesyl pyrophosphate], the “enzymatic activity of Phos15739D28A with substrate” value (Phos15739D28A) is listed as “No activity was detected” and the turnover number [3] is listed as 0.25 ± 0.07 s⁻¹.

`CC(=O)N[C@@H](CSC/C=C(\C)CC/C=C(\C)CC/C=C(\C)CCC=C(C)C)C(=O)O` [N-acetyl-S-geranylgeranyl-L-cysteine] showed an IC50 (Phos2680) of 14 ± 1.9 µM and an IC50 (Phos15739 [2]) of 4.4 ± 2 µM.

In the case of `CC(C)=CCC/C(C)=C/CC/C(C)=C/CC/C(C)=C/COP(=O)(O)O` [GGMP], the “substrate quality for Phos15739 (in words)” value (“substrate quality” for short) (Phos15739 [4]) is reported as “not good substrates”.

For `CC(=O)N[C@@H](CSC/C=C(\C)CC/C=C(\C)CCC=C(C)C)C(=O)O` [N-acetyl-S-farnesyl-L-cysteine], the IC50 (Phos2680) is listed as over 100 µM, the IC50 ([1]; ref [8]) is listed as 0.84 µM and the IC50 (Phos15739 [2]) is listed as 28 ± 6.8 µM.

`CC(=O)N[C@@H](CSC/C=C(\C)CCC=C(C)C)C(=O)O` [N-acetyl-S-geranyl-L-cysteine] gave an IC50 (Phos2680) of over 100 µM and an IC50 (Phos15739 [2]) of 6.3 ± 1.7 µM.

With `CC(C)=CCC/C(C)=C/CC/C(C)=C/CC/C(C)=C/COP(=O)(O)OP(=O)(O)O` [GGPP, Geranylgeranyl pyrophosphate] the “substrate quality” value (Phos15739 [4]) was “not good substrates”.

With `O=[N+]([O-])c1ccc(OP(=O)(O)O)cc1` [p-NPP, para-nitrophenyl phosphate] the “enzymatic activity of Phos15739D28A with substrate” value (Phos15739D28A) was “No activity was detected”.

In the case of `C=C(C)CCOP(=O)(O)OP(=O)(O)O` [IPP], the “substrate quality” value (Phos15739 [4]) is reported as “weak substrates”.

For `CC(C)=CCC/C(C)=C/COP(=O)(O)OP(=O)(O)O` [GPP], the “substrate quality” value (Phos15739 [4]) was “weak substrates”, the “Kcat (s^−1±S.E.)” value (Phos15739 [4]; [12]) was 0.78 ± 0.09 s⁻¹ and the “Vmax (μmol.min^−1mg^−1±S.E.)” value (Phos15739 [4]; [12]) was 1.4 ± 1.5 µmol/min/mg.

B1: Phos15739 (Drosophila melanogaster) (protein)
chain: MAKPQHILQLSQEQRSSVVDSFDRVVSDIDGVLWTFEQSIPRAADGYAALEQMGKHLTFLTNNSVRTSEQCVKLFAKIGMQVHPEQIWHPAKSIVSYLQSIKFEGLIYIIASQSFKTVLREAGFQLLDGPNEFIEESYASLAEHIFGKEPVRAVIIDVDFNLTSPKILRAHLYLRHPECMLIEGATDRLLPVAKEVNIVGPGAFASILVEASGKQPITLGKPGRELGDLLVEHYQIVQPSRVLMIGDMLAQDVSFGRQCGFQTLLVLSGGCSKEELLAETDPQRIPDYYADSVADVAQMLGEAPKSRV
With B1 the Km [5] was 240 µM, the Vmax [5] was 6.1 µmol/min/mg and the Km [6, 13] was 84 ± 27 µM. It also gave a Vmax [6, 13] of 18 ± 2.7 µmol/min/mg, a kcat [6, 13] of 10 ± 1.5 s⁻¹ and a kcat/Km [6, 13] of 120000 M⁻¹ s⁻¹. The Km [7] was 48 ± 13 µM, the Vmax [7] was 18 ± 1.8 µmol/min/mg and the kcat [7] was 10 ± 1.04 s⁻¹. The kcat/Km [7] was 2.1 X 10^5 M^−1 s^−1, the Km [8] was 160 ± 20 µM and the Vmax [8] was 85 ± 4.2 µmol/min/mg. It also gave a kcat [8] of 49 ± 2.4 s⁻¹, a kcat/Km [8] of 310000 M⁻¹ s⁻¹ and a Km [9] of 81 ± 6.7 µM. It also gave a Vmax [9] of 250 ± 9.3 µmol/min/mg, a kcat [9] of 140 ± 5.3 s⁻¹ and a kcat/Km [9] of 1.8e+06 M⁻¹ s⁻¹. The Km [10] was 430 ± 150 µM, the Vmax [10] was 2.1 ± 0.39 µmol/min/mg and the kcat [10] was 1.2 ± 0.22 s⁻¹. It also gave a kcat/Km [10] of 2700 M⁻¹ s⁻¹.

B2: Phos2680 (Drosophila melanogaster) (protein)
chain: MSPPRHILKLSLEEQRQFIDSFDLVISDCDGVVWLLVGWIPNTGAAVNALKAAGKQIKFVSNNSFRSEEDYMEKFRHIGAKNVQEDDIVHPVKTIVRYLKKHKPGERVYSLMSLEANETLRKHNIEFESLQVKEHLTAASLVDHLAIEKPVGAVLFDIHLDLSYVELAKAIRHLQENDDCQLIAGGSDVIMPLAENLNVAGFFDFLEHVKRYTQREATFLGKPSPILGEMFGEMFEIRDCKRCIFIGDTLVQDVQFGKACGFQSLLVLSGCLTKEDMLNAPVEAQPDYYADSLADFTQLLENIQK
B2 gave a Km [11] of 640 µM, a Vmax [11] of 36 µmol/min/mg and a Km ([6]; other: substrate of Phos2680) of 35 µM. The Vmax ([6]; other: substrate of Phos2680) was 59 µmol/min/mg.

From paper PMC2657470 (Biochemical and biophysical research communications, 2009)
